Results from patent US20230103793A1 (DYNE THERAPEUTICS, published 2023).

Assays:
recombinant human TfR1 = biological target: T1, recombinant human TfR1 (human, UniProt P02786 89-760); assay: ELISA, conjugate against unconjugated antibody
T1 construct: Recombinant huTfR1 coated on ELISA plates or used in the immunoprecipitation; also called huTfR1; hTfR1

recombinant cyno TfR1 = biological target: T2, recombinant cyno TfR1 (cynomolgus monkey (Macaca fascicularis), UniProt Q5RDH6 87-760 (Pongo abelii entry), limits assumed); assay: ELISA, conjugate against unconjugated antibody
T2 construct: Recombinant cynoTfR1 coated on ELISA plates; also called cTfR1; cynomolgus monkey TfR1
T2 chain: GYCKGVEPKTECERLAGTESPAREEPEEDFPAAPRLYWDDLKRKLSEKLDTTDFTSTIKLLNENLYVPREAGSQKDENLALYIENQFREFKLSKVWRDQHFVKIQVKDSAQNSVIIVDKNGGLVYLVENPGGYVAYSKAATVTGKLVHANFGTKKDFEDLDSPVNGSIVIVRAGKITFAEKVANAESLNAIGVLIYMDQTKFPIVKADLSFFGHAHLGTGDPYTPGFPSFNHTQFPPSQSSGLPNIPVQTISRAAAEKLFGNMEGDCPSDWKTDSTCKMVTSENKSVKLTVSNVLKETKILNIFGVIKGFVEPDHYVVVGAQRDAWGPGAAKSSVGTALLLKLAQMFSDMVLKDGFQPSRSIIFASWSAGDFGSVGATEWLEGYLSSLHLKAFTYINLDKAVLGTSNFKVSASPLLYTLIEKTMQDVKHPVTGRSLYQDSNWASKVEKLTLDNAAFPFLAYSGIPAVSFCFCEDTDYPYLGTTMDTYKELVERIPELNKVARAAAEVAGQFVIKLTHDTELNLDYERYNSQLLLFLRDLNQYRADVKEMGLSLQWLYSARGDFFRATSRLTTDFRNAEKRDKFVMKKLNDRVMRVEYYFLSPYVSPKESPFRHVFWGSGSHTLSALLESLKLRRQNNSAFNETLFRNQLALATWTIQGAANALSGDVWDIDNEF

B1: anti-TfR (VH of SEQ ID NO: 17 and VL of SEQ ID NO: 18) conjugated to a DMPK-targeting oligonucleotide (control DMPK-ASO) (antibody, V domains shown)
VH: QVQLVQSGAEVKKPGESLKISCKGSGYSFTSYWIGWVRQMPGKGLEWMGIIYPGDSDTRYSPSFQGQVTISADKSISTAYLQWSSLKASDTAMYYCARFPYDSSGYYSFDYWGQGTLVTVSS
VL: not shown
modifications: DMPK-targeting antisense oligonucleotide linked through a cathepsin-cleavable Val-Cit linker to the ε-amine of lysine of the antibody (site and chain not stated)
notes: In the uptake assay several different DMPK-targeting oligonucleotides were used and the conjugates were also labeled with Cypher5e; also called anti-TfR in conjugates with a DMPK targeting oligo; oligonucleotide-conjugated anti-TfR
fold increase of binding upon conjugation (against unconjugated anti-TfR) (recombinant human TfR1): 3 to 6 fold | fold increase of binding upon conjugation (against unconjugated anti-TfR) (recombinant cyno TfR1): 3 to 6 fold
